Reference: the RNAGym collection of RNA variant scans (doi:10.1073/pnas.2313332121)
Fewer inactive variants are shown than the library holds.

B1: TPR 5TU (parent)
chain: GGAUCUUCUCGAUCUAACAAAAAAGACAAAUCUGCCACAAAGCUUGAGAGCAUCUUCGGAUGCAGAGGCGGCAGCCUUCGGUGGCGCGAUAGCGCCAACGUUCUCAACUAUGACACGCAAAACGCGUGCUCCGUUGAAUGGAGUUUAUCAUG

Variants of: B1
Assay: polymerase ribozyme fitness, log enrichment relative to wild type (log ratio); higher = more active; in vitro selection for triplet polymerase activity
Summary of the method: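 Streptavidin-bead capture of gel-excised extended constructs, followed by RT-PCR, closed a single triplicate in vitro selection round. That round began by annealing PCR-built, transcribed mutant libraries of each subunit of a heterodimeric triplet polymerase ribozyme with a biotinylated primer, the partner subunit and triplets, then incubating them frozen at −7 °C. After Illumina sequencing of inputs and outputs, genotypes needed ≥10 input reads and ≥1 read per output. Fitness is the base-2 logarithm of genotype enrichment over wild-type enrichment, using inverse-variance-weighted replicate averages.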

Variant	polymerase ribozyme fitness (log ratio)
A40C U55G G84C C96U C103U C118U	-3.51
A41C C76U G84U	-2.96
A40U C63A C72A C76A C103G	≤ -4.2
A41G G94C	0.425
C43U C85U G88U C96A C123G G124C C129U G133C U139C	≤ -4.2
G42A G59A G74U C96G A137G	≤ -4.2
A40C U45A A66U G83A G88U A97C A122U A138U	≤ -4.2
A40U U55C U78G U151A	≤ -4.2
A41C C125G	-0.815
A41C C93U C123U	-1.59
A40C G50U C69G C116U	-3.24
A40G	-1.51
A40U	0.097
G42C U101G G136U	≤ -4.2
G42C U148C	≤ -4.2
A40C C51U G84A	-0.15
A41C U127G G136U G141U	≤ -4.2
A41U A60U U144G	-0.464
A40C C76U	0.0931
A40C C57U	0.521
A40C U53A A110C	-4.04

Variant	polymerase ribozyme fitness (log ratio)
C43A G94C G143U	≤ -4.2
G42A G50A C57U G67C C79U G83U C93U	≤ -4.2
A40U C57A G58C C79G	-3.81
U44A A49C C93U C123G U130G	≤ -4.2
C43U U56A A66C C75A C85G	≤ -4.2
A40U G42A C63U C114U A119C G141U G143A	≤ -4.2
A40G C54G G126A	-3.46
A40U A89C	-0.129
A41C G83U	-0.922
A40C G59C C63A G65U C87A C95U C125A G126U	≤ -4.2
A40U G59C C132U U145G	-1.94
A41G C87A A121G C123U G140A U146C C149G	≤ -4.2
A41C G84A	-0.601
A40C C99U	0.519
A40C C85G	-1.95
G42C A47G G88C	≤ -4.2
A41U U44A G65C C85G G143U	≤ -4.2
A41U A66C G67A C79G C96U A150U	≤ -4.2
A40C C85G A106G G117C	-1.29
A41C C57A C99G U104C G126C U144G	-3.09
A41C U53A G92U	-1.22

Variant	polymerase ribozyme fitness (log ratio)
C43U G74C C93G U146A	≤ -4.2
A40U G92C A147C	-0.761
A41U A52G A107U G140U C149A	≤ -4.2
G42U A64C C79U G88A A106G A107C A147U	≤ -4.2
G42A A47C C85G C96G C116A A147U	≤ -4.2
A40U U55G G58A A97G	-0.0754
A40C G84A G94A C131U U139A	-4.09
A41G U77G C85G C96U G124C	≤ -4.2
A41G C63U	0.774
A40C C85A U102G G143A	≤ -4.2
A40U U56A C85G C114G	-3.79
A40G U55G U56A G88C	≤ -4.2
A40U C87U C105U G136U	-2.13
G42A U56A C95U U111G	-4
C43A U44A A91U G141U A150C	≤ -4.2
A40U C105G	-0.905
A41C G92U	-1.08
G42C U55A A60U C87U A115U	≤ -4.2
C43G U55C G70A C85A C87G C95U G133U	≤ -4.2
A41C A142G U144C G152A	-3.09
A40U U130A	-3.96

Variant	polymerase ribozyme fitness (log ratio)
G42A A64G U102G	≤ -4.2
A40U A64G C93A A98G A107C U130G	≤ -4.2
G42A G50A A66U G88A C96G U139C	≤ -4.2
C43U U61G G94U C116U U144G C149G	≤ -4.2
C43U G46A U90C C95U A106U	≤ -4.2
A40U C76U	-0.102
A41U G80U U101C	-4.09
A40C U109C	-3.47
G42A C96A A122G A138G U145G	≤ -4.2
A41U C51G G58U U61A G68A C96A A97C U102C	≤ -4.2
A40C U61A C76A	≤ -4.2
A41G U44G C75A G92A U102A U148C	≤ -4.2
A40G A97G	-1.8
A40C A60U G70A C103A A107G	≤ -4.2
A40C A137G	-1.42
A40U G83C C96A G152A	-3.95
A40G A41U	-2.41
A40C U90C	-4.09
A40U C114U A121C	-2.44
A41G A47C G81C	-0.0928
